From paper PMC4956616, “Structural Insights into Arl1-Mediated Targeting of the Arf-GEF BIG1 to the trans-Golgi” (Cell Reports, 2016)

B1: MBP-tagged DCB^BIG1 (wild type) (domain or fragment, human, UniProt Q9Y6D6 1-228, looked up)
chain: MYEGKKTKNMFLTRALEKILADKEVKKAHHSQLRKACEVALEEIKAETEKQSPPHGEAKAGSSTLPPVKSKTNFIEADKYFLPFELACQSKCPRIVSTSLDCLQKLIAYGHLTGNAPDSTTPGKKLIDRIIETICGCFQGPQTDEGVQLQIIKALLTAVTSQHIEIHEGTVLQAVRTCYNIYLASKNLINQTTAKATLTQMLNVIFARMENQALQEAKQMEKERHRQH
notes: Expected monomer 69 kDa, measured average 129 kDa; also called MBP-DCB^BIG1; not shown: MBP, N-terminal, kept
B2: His6-DCB^Δ51–71 (human BIG1 residues 1–228 with a deletion of residues 51–71 inclusive) (domain or fragment, UniProt Q9Y6D6 1-228, looked up)
chain: MYEGKKTKNMFLTRALEKILADKEVKKAHHSQLRKACEVALEEIKAETEKTNFIEADKYFLPFELACQSKCPRIVSTSLDCLQKLIAYGHLTGNAPDSTTPGKKLIDRIIETICGCFQGPQTDEGVQLQIIKALLTAVTSQHIEIHEGTVLQAVRTCYNIYLASKNLINQTTAKATLTQMLNVIFARMENQALQEAKQMEKERHRQH
notes: also called DCB^((Δ51–71) BIG1); source: E. coli BL21-(DE3)-RIPL, co-expressed with GST-Arl1^Q71L, purified (glutathione-Sepharose, TEV release, Superdex 75)
B3: GST-Arl1^ΔN14 (human Arl1 residues 15–181), loaded with GMP-PNP or GDP (domain or fragment, UniProt P40616 15-181, looked up)
chain: TREMRILILGLDGAGKTTILYRLQVGEVVTTIPTIGFNVETVTYKNLKFQVWDLGGQTSIRPYWRCYYSNTDAVIYVVDSCDRDRIGISKSELVAMLEEEELRKAILVVFANKQDMEQAMTSSEMANSLGLPALKDRKWQIFKTSATKGTGLDEAMEWLVETLKSRQ
notes: human Arl1, UniProt P40616, residues 15-181 (lacks the N-terminal amphipathic helix, residues 1-14); it was loaded with nucleotide (GMP-PNP or GDP) in vitro; also called Arl1^GTP; GST-Arl1^GMP-PNP; source: E. coli BL21-CodonPlus (DE3)-RIPL, purified (glutathione-Sepharose); not shown: GST, N-terminal, kept

Experiments:
[1] = molecular target: the molecule itself; assay: SEC-MALS; MBP-tagged DCB^BIG1 proteins on Superdex-75 HR10/300, 0.5 ml/min, PBS pH 7.5, 150 mM NaCl, 5 mM MgCl2, 0.001% Triton X-100; dimer to monomers
[2] = molecular target: the molecule itself; assay: crystal structure; Arl1^Q71L-GTP/Mg2+/DCB^Δ51–71, space group C2, one complex per asymmetric unit, 2.3 Å, molecular replacement
[3] = molecular target: T1, His6-tagged BIG2 N-terminal fragment (1–216) (human, UniProt Q9Y6D5 1-216); assay: pull-down; 2 nM GST-Arl1 loaded with GMP-PNP or GDP mixed with 2 nM His6-tagged protein in 500 μl buffer C (20 mM Tris-HCl, 110 mM KCl, 1 mM DTT, 0.1% Triton X-100) plus 5 mM MgCl2, 4°C 30 min, captured on glutathione-Sepharose; SDS-PAGE, Coomassie; details: both partners purified
T1 construct: human BIG2, UniProt Q9Y6D5, N-terminal fragment, residues 1-216; also called related region from BIG2; source: E. coli BL21-CodonPlus (DE3)-RIPL, purified (Ni-NTA); not shown: His6, N-terminal, kept
T1 sequence (looked up): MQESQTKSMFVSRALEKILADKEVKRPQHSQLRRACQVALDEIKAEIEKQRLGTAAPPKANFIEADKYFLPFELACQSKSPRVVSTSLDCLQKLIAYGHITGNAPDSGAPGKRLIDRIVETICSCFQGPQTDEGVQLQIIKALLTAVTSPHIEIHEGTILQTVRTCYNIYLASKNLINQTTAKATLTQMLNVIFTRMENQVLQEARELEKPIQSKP

[4] = molecular target: B2; assay: as above; details: both partners purified
[5] = molecular target: T2, His6-DCB^BIG1 (human BIG1 residues 1–228) (human, UniProt Q9Y6D6 1-228); assay: as above; details: both partners purified
T2 construct: also called DCB domain; source: E. coli BL21-CodonPlus (DE3)-RIPL, purified (Ni-NTA); not shown: His6, N-terminal, kept
T2 sequence (looked up): B1 chain

Q: For B1, which “stoichiometry N” value [1] is on record?
A: 2

Q: Does B2 bind [2]?
A: binds

Q: Does B3 bind [3]?
A: binds

Q: Does B3 bind [4]?
A: binds

Q: Does B3 bind [5]?
A: binds
